Experimental data taken from the supplement of paper PMC10567573.

Assay: protein stability index of a GFP-peptide fusion (GPS, HEK-293T) (PSI 1-6); higher = more stable
Conditions: c terminus: native
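Further: lentivirally expressed fusion library, cells FACS-sorted into six equal-sized GFP/DsRed ratio bins, PSI computed from sequencing read fractions per bin weighted by bin number.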

LPALFTDLYSQEITAEEAREALPK [SNF8 addK]
protein stability index (parent: NP_009172.2): 5.17

DGWIRVSSDNVADLHEKYSGSTPK [PSMB5 addK]
protein stability index (parent: NP_002788.1): 4.81

CQPISFSGFGAEDDDLGGLGLGPK [POLD2 addK]
protein stability index (parent: NP_006221.1): 4.81

HSLRAVSTDPPHHDHHDEFCLMPK [BEX2 addK]
protein stability index (parent: NP_116010.1): 4.67

EQRNSRWNTVLRAVKAKTHHLEPK [TRPA1 addK]
protein stability index (parent: NP_015628.1): 5.03
